Experimental data from patent US20170210799A1 (Janssen / Centocor, published 2017).

What was measured:
[1] = target: T1, human ROR1 (Receptor Tyrosine Kinase-Like Orphan Receptor 1) on cells (human, UniProt Q01973 30-937); experiment: flow cytometry, HCC827 cells
T1 construct: whole, on cells; also called hu ROR1

[2] = target: T1, human ROR1 (Receptor Tyrosine …); experiment: cell-based or functional assay

T1 sequence (Q01973 30-937): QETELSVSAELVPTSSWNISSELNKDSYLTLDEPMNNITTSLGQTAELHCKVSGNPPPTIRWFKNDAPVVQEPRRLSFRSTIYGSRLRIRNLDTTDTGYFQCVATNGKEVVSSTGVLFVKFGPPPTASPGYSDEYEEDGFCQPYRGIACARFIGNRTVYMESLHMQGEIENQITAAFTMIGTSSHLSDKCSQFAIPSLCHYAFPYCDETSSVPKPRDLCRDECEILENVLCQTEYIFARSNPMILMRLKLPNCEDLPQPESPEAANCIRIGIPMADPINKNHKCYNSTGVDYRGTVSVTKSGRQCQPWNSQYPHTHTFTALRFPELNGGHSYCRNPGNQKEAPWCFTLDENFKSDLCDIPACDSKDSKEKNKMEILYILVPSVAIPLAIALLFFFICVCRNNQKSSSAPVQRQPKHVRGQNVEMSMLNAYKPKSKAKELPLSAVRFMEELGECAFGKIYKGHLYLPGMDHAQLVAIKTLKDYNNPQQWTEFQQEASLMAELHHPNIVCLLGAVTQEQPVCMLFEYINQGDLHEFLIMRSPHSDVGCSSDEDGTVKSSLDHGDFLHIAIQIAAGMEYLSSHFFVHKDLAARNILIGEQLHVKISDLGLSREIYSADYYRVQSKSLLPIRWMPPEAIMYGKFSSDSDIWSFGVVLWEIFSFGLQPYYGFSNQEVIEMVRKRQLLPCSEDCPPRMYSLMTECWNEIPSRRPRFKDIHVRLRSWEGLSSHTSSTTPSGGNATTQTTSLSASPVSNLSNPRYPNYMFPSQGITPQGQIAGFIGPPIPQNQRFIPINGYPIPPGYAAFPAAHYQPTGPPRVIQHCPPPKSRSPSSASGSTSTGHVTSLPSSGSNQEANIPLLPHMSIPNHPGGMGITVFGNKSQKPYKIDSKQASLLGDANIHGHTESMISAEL

Row | Binder | EC50 [1] [nM] | Killing EC50 [2] [nM]
1 | RCDB4 (bispecific antibody, human IgG4 S228P, kappa, lambda, F234A L235A, DuoBody IgG4 PAA, ROR1 arm + CD3B219 arm; also called RR1B66 × CD3B219) heavy 1: not shown light 1: not shown heavy 2: EVQLVESGGGLVQPGGSLRLSCAASGFTFNTYAMNWVRQAPGKGLEWVARIRSKYNNYATYYAASVKGRFTISRDDSKNSLYLQMNSLKTEDTAVYYCARHGNFGNSYVSWFAYWGQGTLVTVSSASTKGPSVFPLAPCSRSTSESTAALGCLVKDYFPEPVTVSWNSGALTSGVHTFPAVLQSSGLYSLSSVVTVPSSSLGTKTYTCNVDHKPSNTKVDKRVESKYGPPCPPCPAPEAAGGPSVFLFPPKPKDTLMISRTPEVTCVVVDVSQEDPEVQFNWYVDGVEVHNAKTKPREEQFNSTYRVVSVLTVLHQDWLNGKEYKCKVSNKGLPSSIEKTISKAKGQPREPQVYTLPPSQEEMTKNQVSLTCLVKGFYPSDIAVEWESNGQPENNYKTTPPVLDSDGSFLLYSKLTVDKSRWQEGNVFSCSVMHEALHNHYTQKSLSLSLGK light 2: QTVVTQEPSLTVSPGGTVTLTCRSSTGAVTTSNYANWVQQKPGQAPRGLIGGTNKRAPGTPARFSGSLLGGKAALTLSGVQPEDEAEYYCALWYSNLWVFGGGTKLTVLGQPKAAPSVTLFPPSSEELQANKATLVCLISDFYPGAVTVAWKADSSPVKAGVETTTPSKQSNNKYAASSYLSLTPEQWKSHRSYSCQVTHEGSTVEKTVAPTECS | 9.14 | 0.677
2 | RCDB19 (bispecific antibody, human IgG4 S228P, kappa, lambda, F234A L235A, DuoBody IgG4 PAA, ROR1 arm + CD3B219 arm; also called RR1B88 × CD3B219) heavy 1: not shown light 1: not shown heavy 2: EVQLVESGGGLVQPGGSLRLSCAASGFTFNTYAMNWVRQAPGKGLEWVARIRSKYNNYATYYAASVKGRFTISRDDSKNSLYLQMNSLKTEDTAVYYCARHGNFGNSYVSWFAYWGQGTLVTVSSASTKGPSVFPLAPCSRSTSESTAALGCLVKDYFPEPVTVSWNSGALTSGVHTFPAVLQSSGLYSLSSVVTVPSSSLGTKTYTCNVDHKPSNTKVDKRVESKYGPPCPPCPAPEAAGGPSVFLFPPKPKDTLMISRTPEVTCVVVDVSQEDPEVQFNWYVDGVEVHNAKTKPREEQFNSTYRVVSVLTVLHQDWLNGKEYKCKVSNKGLPSSIEKTISKAKGQPREPQVYTLPPSQEEMTKNQVSLTCLVKGFYPSDIAVEWESNGQPENNYKTTPPVLDSDGSFLLYSKLTVDKSRWQEGNVFSCSVMHEALHNHYTQKSLSLSLGK light 2: QTVVTQEPSLTVSPGGTVTLTCRSSTGAVTTSNYANWVQQKPGQAPRGLIGGTNKRAPGTPARFSGSLLGGKAALTLSGVQPEDEAEYYCALWYSNLWVFGGGTKLTVLGQPKAAPSVTLFPPSSEELQANKATLVCLISDFYPGAVTVAWKADSSPVKAGVETTTPSKQSNNKYAASSYLSLTPEQWKSHRSYSCQVTHEGSTVEKTVAPTECS | 16.2 | –
3 | RCDB15 (bispecific antibody, human IgG4 S228P, kappa, lambda, F234A L235A, DuoBody IgG4 PAA, ROR1 arm + CD3B219 arm; also called RR1B83 × CD3B219) heavy 1: not shown light 1: not shown heavy 2: EVQLVESGGGLVQPGGSLRLSCAASGFTFNTYAMNWVRQAPGKGLEWVARIRSKYNNYATYYAASVKGRFTISRDDSKNSLYLQMNSLKTEDTAVYYCARHGNFGNSYVSWFAYWGQGTLVTVSSASTKGPSVFPLAPCSRSTSESTAALGCLVKDYFPEPVTVSWNSGALTSGVHTFPAVLQSSGLYSLSSVVTVPSSSLGTKTYTCNVDHKPSNTKVDKRVESKYGPPCPPCPAPEAAGGPSVFLFPPKPKDTLMISRTPEVTCVVVDVSQEDPEVQFNWYVDGVEVHNAKTKPREEQFNSTYRVVSVLTVLHQDWLNGKEYKCKVSNKGLPSSIEKTISKAKGQPREPQVYTLPPSQEEMTKNQVSLTCLVKGFYPSDIAVEWESNGQPENNYKTTPPVLDSDGSFLLYSKLTVDKSRWQEGNVFSCSVMHEALHNHYTQKSLSLSLGK light 2: QTVVTQEPSLTVSPGGTVTLTCRSSTGAVTTSNYANWVQQKPGQAPRGLIGGTNKRAPGTPARFSGSLLGGKAALTLSGVQPEDEAEYYCALWYSNLWVFGGGTKLTVLGQPKAAPSVTLFPPSSEELQANKATLVCLISDFYPGAVTVAWKADSSPVKAGVETTTPSKQSNNKYAASSYLSLTPEQWKSHRSYSCQVTHEGSTVEKTVAPTECS | 6.34 | 1.28
4 | RCDB18 (bispecific antibody, human IgG4 S228P, kappa, lambda, F234A L235A, DuoBody IgG4 PAA, ROR1 arm + CD3B219 arm; also called RR1B86 × CD3B219) heavy 1: not shown light 1: not shown heavy 2: EVQLVESGGGLVQPGGSLRLSCAASGFTFNTYAMNWVRQAPGKGLEWVARIRSKYNNYATYYAASVKGRFTISRDDSKNSLYLQMNSLKTEDTAVYYCARHGNFGNSYVSWFAYWGQGTLVTVSSASTKGPSVFPLAPCSRSTSESTAALGCLVKDYFPEPVTVSWNSGALTSGVHTFPAVLQSSGLYSLSSVVTVPSSSLGTKTYTCNVDHKPSNTKVDKRVESKYGPPCPPCPAPEAAGGPSVFLFPPKPKDTLMISRTPEVTCVVVDVSQEDPEVQFNWYVDGVEVHNAKTKPREEQFNSTYRVVSVLTVLHQDWLNGKEYKCKVSNKGLPSSIEKTISKAKGQPREPQVYTLPPSQEEMTKNQVSLTCLVKGFYPSDIAVEWESNGQPENNYKTTPPVLDSDGSFLLYSKLTVDKSRWQEGNVFSCSVMHEALHNHYTQKSLSLSLGK light 2: QTVVTQEPSLTVSPGGTVTLTCRSSTGAVTTSNYANWVQQKPGQAPRGLIGGTNKRAPGTPARFSGSLLGGKAALTLSGVQPEDEAEYYCALWYSNLWVFGGGTKLTVLGQPKAAPSVTLFPPSSEELQANKATLVCLISDFYPGAVTVAWKADSSPVKAGVETTTPSKQSNNKYAASSYLSLTPEQWKSHRSYSCQVTHEGSTVEKTVAPTECS | 5.07 | –
5 | RCDB8 (bispecific antibody, human IgG4 S228P, kappa, lambda, F234A L235A, DuoBody IgG4 PAA, ROR1 arm + CD3B219 arm; also called RR1B71 × CD3B219) heavy 1: not shown light 1: DIQMTQSPSSLSASVGDRVTITCRASQSIDRHLNWYQQKPGKAPKLLIYKASSLQSGVPSRFSGSGSGTDFTLTISSLQPEDFATYYCQQPHTFPLTFGQGTKVEIKRTVAAPSVFIFPPSDEQLKSGTASVVCLLNNFYPREAKVQWKVDNALQSGNSQESVTEQDSKDSTYSLSSTLTLSKADYEKHKVYACEVTHQGLSSPVTKSFNRGEC heavy 2: EVQLVESGGGLVQPGGSLRLSCAASGFTFNTYAMNWVRQAPGKGLEWVARIRSKYNNYATYYAASVKGRFTISRDDSKNSLYLQMNSLKTEDTAVYYCARHGNFGNSYVSWFAYWGQGTLVTVSSASTKGPSVFPLAPCSRSTSESTAALGCLVKDYFPEPVTVSWNSGALTSGVHTFPAVLQSSGLYSLSSVVTVPSSSLGTKTYTCNVDHKPSNTKVDKRVESKYGPPCPPCPAPEAAGGPSVFLFPPKPKDTLMISRTPEVTCVVVDVSQEDPEVQFNWYVDGVEVHNAKTKPREEQFNSTYRVVSVLTVLHQDWLNGKEYKCKVSNKGLPSSIEKTISKAKGQPREPQVYTLPPSQEEMTKNQVSLTCLVKGFYPSDIAVEWESNGQPENNYKTTPPVLDSDGSFLLYSKLTVDKSRWQEGNVFSCSVMHEALHNHYTQKSLSLSLGK light 2: QTVVTQEPSLTVSPGGTVTLTCRSSTGAVTTSNYANWVQQKPGQAPRGLIGGTNKRAPGTPARFSGSLLGGKAALTLSGVQPEDEAEYYCALWYSNLWVFGGGTKLTVLGQPKAAPSVTLFPPSSEELQANKATLVCLISDFYPGAVTVAWKADSSPVKAGVETTTPSKQSNNKYAASSYLSLTPEQWKSHRSYSCQVTHEGSTVEKTVAPTECS | 10.6 | –
6 | RCDB3 (bispecific antibody, human IgG4 S228P, kappa, lambda, F234A L235A, DuoBody IgG4 PAA, ROR1 arm + CD3B219 arm; also called RR1B65 × CD3B219) heavy 1: not shown light 1: not shown heavy 2: EVQLVESGGGLVQPGGSLRLSCAASGFTFNTYAMNWVRQAPGKGLEWVARIRSKYNNYATYYAASVKGRFTISRDDSKNSLYLQMNSLKTEDTAVYYCARHGNFGNSYVSWFAYWGQGTLVTVSSASTKGPSVFPLAPCSRSTSESTAALGCLVKDYFPEPVTVSWNSGALTSGVHTFPAVLQSSGLYSLSSVVTVPSSSLGTKTYTCNVDHKPSNTKVDKRVESKYGPPCPPCPAPEAAGGPSVFLFPPKPKDTLMISRTPEVTCVVVDVSQEDPEVQFNWYVDGVEVHNAKTKPREEQFNSTYRVVSVLTVLHQDWLNGKEYKCKVSNKGLPSSIEKTISKAKGQPREPQVYTLPPSQEEMTKNQVSLTCLVKGFYPSDIAVEWESNGQPENNYKTTPPVLDSDGSFLLYSKLTVDKSRWQEGNVFSCSVMHEALHNHYTQKSLSLSLGK light 2: QTVVTQEPSLTVSPGGTVTLTCRSSTGAVTTSNYANWVQQKPGQAPRGLIGGTNKRAPGTPARFSGSLLGGKAALTLSGVQPEDEAEYYCALWYSNLWVFGGGTKLTVLGQPKAAPSVTLFPPSSEELQANKATLVCLISDFYPGAVTVAWKADSSPVKAGVETTTPSKQSNNKYAASSYLSLTPEQWKSHRSYSCQVTHEGSTVEKTVAPTECS | 3.77 | 2.48
7 | RCDB16 (bispecific antibody, human IgG4 S228P, kappa, lambda, F234A L235A, DuoBody IgG4 PAA, ROR1 arm + CD3B219 arm; also called RR1B84 × CD3B219) heavy 1: not shown light 1: not shown heavy 2: EVQLVESGGGLVQPGGSLRLSCAASGFTFNTYAMNWVRQAPGKGLEWVARIRSKYNNYATYYAASVKGRFTISRDDSKNSLYLQMNSLKTEDTAVYYCARHGNFGNSYVSWFAYWGQGTLVTVSSASTKGPSVFPLAPCSRSTSESTAALGCLVKDYFPEPVTVSWNSGALTSGVHTFPAVLQSSGLYSLSSVVTVPSSSLGTKTYTCNVDHKPSNTKVDKRVESKYGPPCPPCPAPEAAGGPSVFLFPPKPKDTLMISRTPEVTCVVVDVSQEDPEVQFNWYVDGVEVHNAKTKPREEQFNSTYRVVSVLTVLHQDWLNGKEYKCKVSNKGLPSSIEKTISKAKGQPREPQVYTLPPSQEEMTKNQVSLTCLVKGFYPSDIAVEWESNGQPENNYKTTPPVLDSDGSFLLYSKLTVDKSRWQEGNVFSCSVMHEALHNHYTQKSLSLSLGK light 2: QTVVTQEPSLTVSPGGTVTLTCRSSTGAVTTSNYANWVQQKPGQAPRGLIGGTNKRAPGTPARFSGSLLGGKAALTLSGVQPEDEAEYYCALWYSNLWVFGGGTKLTVLGQPKAAPSVTLFPPSSEELQANKATLVCLISDFYPGAVTVAWKADSSPVKAGVETTTPSKQSNNKYAASSYLSLTPEQWKSHRSYSCQVTHEGSTVEKTVAPTECS | 10.4 | 2.91
8 | RCDB14 (bispecific antibody, human IgG4 S228P, kappa, lambda, F234A L235A, DuoBody IgG4 PAA, ROR1 arm + CD3B219 arm; also called RR1B82 × CD3B219) heavy 1: not shown light 1: not shown heavy 2: EVQLVESGGGLVQPGGSLRLSCAASGFTFNTYAMNWVRQAPGKGLEWVARIRSKYNNYATYYAASVKGRFTISRDDSKNSLYLQMNSLKTEDTAVYYCARHGNFGNSYVSWFAYWGQGTLVTVSSASTKGPSVFPLAPCSRSTSESTAALGCLVKDYFPEPVTVSWNSGALTSGVHTFPAVLQSSGLYSLSSVVTVPSSSLGTKTYTCNVDHKPSNTKVDKRVESKYGPPCPPCPAPEAAGGPSVFLFPPKPKDTLMISRTPEVTCVVVDVSQEDPEVQFNWYVDGVEVHNAKTKPREEQFNSTYRVVSVLTVLHQDWLNGKEYKCKVSNKGLPSSIEKTISKAKGQPREPQVYTLPPSQEEMTKNQVSLTCLVKGFYPSDIAVEWESNGQPENNYKTTPPVLDSDGSFLLYSKLTVDKSRWQEGNVFSCSVMHEALHNHYTQKSLSLSLGK light 2: QTVVTQEPSLTVSPGGTVTLTCRSSTGAVTTSNYANWVQQKPGQAPRGLIGGTNKRAPGTPARFSGSLLGGKAALTLSGVQPEDEAEYYCALWYSNLWVFGGGTKLTVLGQPKAAPSVTLFPPSSEELQANKATLVCLISDFYPGAVTVAWKADSSPVKAGVETTTPSKQSNNKYAASSYLSLTPEQWKSHRSYSCQVTHEGSTVEKTVAPTECS | 6.21 | –
